Results published in the RNAGym collection of RNA variant scans (doi:10.1073/pnas.2313332121).

B1: TPR t1 (parent)
chain: GACCAAUCUGCCCUCAGAGCUCGAGAACAUCUUCGGAUGCAGAGGAGGCAGGCUUCGGUGGCGCGAUAGCGCCAACGUCCUCAACCUCCAAUGCAUCCCACCACAUGAUGAUGCCUGAAGAGCCUUGGUUUUUUG

Variants of: B1
Assay: polymerase ribozyme fitness, log enrichment relative to wild type (log ratio); higher = more active; in vitro selection for triplet polymerase activity
Procedure, shortened: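 Only genotypes with ≥10 input reads and ≥1 read per output were kept after Illumina sequencing of input and output libraries. These libraries were PCR-built, transcribed mutants of each subunit of a heterodimeric triplet polymerase ribozyme, each put through one triplicate in vitro selection round with frozen incubation at −7 °C, gel excision of extended constructs, streptavidin-bead capture and RT-PCR. Fitness is a logarithmic ratio of genotype enrichment to wild-type enrichment, from inverse-variance-weighted replicate averages, with the logarithm in base 2.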

Going from GACCAAUCUGCCCUCAGAGCUCGAGAACAUCUUCGGAUGCAGAAGAGGCAGGCUUCGGUGGCGCGAUAGCGGCAACGUCCUCAACCUCCAAUGCAUCCCACCACAUGAUGAUGACUGAAGUGCCUUCGUUUUUUG to GACCAAUCUGCCCUCAGAGCUCGAGAACAUCUUCGGAUGCAGAAGAGGCAGGCUUGGGUGGCGCGAUAGCGCCAAAGUCCUCAACAUCCAAUGCAUCCCACCACAUGAUGAUGCCUGAAGAGCCUUGGUUUUUUG, the “polymerase ribozyme fitness (log ratio)” value falls from -2.5 to -2.93.

First: GACCAAUCUGCCCUCAGAGCUCGAGAACAUCUUCGGAUGCAGAAGAGGCAGGCUUCGGUGGCGUGAUAGCGCCAACGUCCUCAACCUCCAAUGCAUCCCACCACAUGAUGAUGCCUGAAGAGCCUUGCUUUCUUG
Second: GACCAAUCUGCCCUCAGAGCUCGAGAACAUCUUCGGAUGCAGAAGAGGCAGGCUUCGGUGGCGCGAUAGGGCCAACGUCCUCAACCUCCAAUGCAUCCCAGCACAUGAUGAUGUCUGAAGAGCCUUGCUUUUUUG
The “polymerase ribozyme fitness (log ratio)” value of the first is higher: -2.96 for the first, -6.56 for the second.

GACCAAUCUGCCCUCAGAGCUCGAGAACAUCUUCGGAUGCAGAAGAGGCAGGUUUCGGUGGCGCGAUAGCGCCAACGUCCUUAACCUCCAAUGCAUCCCACCACAUGAUGAUGCCUAAAGAGCAUUGGUUUUUUG and GACCAAUCUGCCCUCAGAGCUCGAGAACAUCUUCGGAUGCAGAAGAGGCAGGCUUCGGUGGCGCGAUAGCGGCAACGUCCUCAACCUCCAAUGCAUCCCACCACAUGAUGAUGCCUGAAGAGACUUGGUUUUUUG are within 0.2 log units of each other in “polymerase ribozyme fitness (log ratio)” value: -1.14 for the first, -1.13 for the second.

Going from GACCAAUCUGCCCUCAGAGCUCGAGAACAUCUUCGGAUGCAGAAGAGGCAGGCUUCGGUGGCGAGAUAGCGCCAAAGUCCUCAACCUCCAAUGCAUCCCACCACAUGAUGAUGCCUGAAGAGCCUUGGUUUUUUG to GACCAAUCUGCCCUCAGAGCUCGAGAACAUCUUCGGAUGCAGAAGAGGCAGGCUUCGGUGGCGCGAUAGCGACAACGUCCUCAACCUCCAAUGCAUCCCACCACAUGAUAAUGCCUGAAGAACAUUGGUUUUUUG, the “polymerase ribozyme fitness (log ratio)” value rises from -6.8 to -3.56.

Going from GACCAAUCUGCCCUCAGAGCUCGAGAACAUCUUCGGAUGCAGAAGAGGCAGGCUUCGGUGGCGCGAUAGCGCCAACGUCCUUAACCUCCAAUGCAUCCCAGCACAUGAUGAUGCCUGAAGAGCCUUGGUUUUUUG to GACCAAUCUGCCCUCAGAGCUCGAGAACAUCUUCGGAUGCAGAAGAGGCAGGCUUCGGUGGCGCGAUAGCGGCAACGUCCUCAACCUCCAAUGCAUUCCACCACAUGAUGAUUCCUAAAGAGCCUUGGUUUUUUG, the “polymerase ribozyme fitness (log ratio)” value falls from -2.82 to -6.18.

Going from GACCAAUCUGCCCUCAGAGCUCGAGAACAUCUUCGGAUGCAGAAGAGGCAGGCUUCGGUGGCGCGAUAGCGCCAACGUACUCAACCUCCAAUGCAUCCCACCACAUGAUGAUGCCUGAAGAGCCAUGGUUUUUUG to GACCAAUCUGCCCUCAGAGCUCGAGAACAUCUUCGGAUGCAGAAGAGGCAGGCUUCGGUGGCGCGAUAGCGUCAACGUCCUCAUCCUCCAAUGCAUCCCACCACAUGAUGAUGCCUGAAGAGCCUUGGUUUUUUG, the “polymerase ribozyme fitness (log ratio)” value rises from -3.2 to -1.47.

Compared with GACCAAUCUGCCCUCAGAGCUCGAGAACAUCUUCGGAUGCAGAAGAGGCAGGCUUCGGUGGCGCGAUAGCGCCAACGUCCUCAACCUCCAAUGCCUCCCACCACAUGAUGAUGCCUGAAGAGGCUUGGUUUAUUG, GACCAAUCUGCCCUCAGAGCUCGAGAACAUCUUCGGAUGCAGAAGAGGCAGGCUUCGGUGGCGCGAUAGCGGCAACGUCCUCAACCUCCAAUGCAUCCCACCACAUGAUGAUGCCUGAGGAGCCCUGGUUUUUUG is lower in “polymerase ribozyme fitness (log ratio)” value: -1.17 for the first, -2.76 for the second.

Going from GACCAAUCUGCCCUCAGAGCUCGAGAACAUCUUCGGAUGCAGAAGAGGCAGGCUUCGGUGGCGCGAUAGCGCCAACGUCCUCAACCUCCUAUGCAUCCCACCACAUGAUGAUGCCUGAAGAGCCUUGGUUUUUUG to GACCAAUCUGCCCUCAGAGCUCGAGAACAUCUUCGGAUGCAGAAGAGGUAGGCUUCGGUGGCGCGAUAGCGCCAACGUCCUCAACCUCCAAUGCAUCCCACCACAUGAUGAUGCCUCAAGAGCCUUGGUUUUGUG, the “polymerase ribozyme fitness (log ratio)” value falls from -1.45 to -5.23.

First: GACCAAUCUGCCCUCAGAGCUCGAGAACAUCUUCGGAUGCAGAAGAGGCAGGCUUCGGUGGCGCGAUAGCGCCAACGUCCUCAACCUCCAAUGCAUCCCACCACAUGAUGAUGCCUGUAGAGCCUUGGUUUUUUG
Second: GACCAAUCUGCCCUCAGAGCUCGAGAACAUCUUCGGAUGCAGAAGAGGCAGGCUUCGGUGGCGCGAUAGCGCCAACGUCCUCAACCUCCAAUGCAUCCCACCACAUGAUGAUGCCUGGAGAGCCUUGGUUUUUUG
The “polymerase ribozyme fitness (log ratio)” value of the first is higher: -0.0596 for the first, -1.56 for the second.

Compared with GACCAAUCUGCCCUCAGAGCUCGAGAACAUCUUCGGAUGCAGAAGAGGCAGGCUUUGGUGGCGCGAUAGCGCCAACGUCCUCACCCUCCAAUGCAUCCCACCACAUGAUGAUGCCUGAACAGCCUUGGUUUUUUG, GACCAAUCUGCCCUCAGAGCUCGAGAACAUCUUCGGAUGCAGAAGAGGCAGGCUUCGGUGGCGCGAUAGCGACAACGUCCUCAACCUCCAAUGCAUCCCACCACAUGAUGAUGCCUGAAGAGCCUUGGUUUUUUG is lower in “polymerase ribozyme fitness (log ratio)” value: -0.295 for the first, -0.836 for the second.

Going from GACCAAUCUGCCCUCAGAGCUCGAGAACAUCUUCGGAUGCAGAAGAGGCAGGCUUCGGUGGCGCGAUAGGGCCAACGUCCUCAACCUCCAAUGCAUCCCACCACAUGAUGAUGCCUGAAGAGCCUUGGUUUUUUG to GACCAAUCUGCCCUCAGAGCUCGAGAACAUCUUCGGAUGCAGAAGAGGCAGGCUUCGGUGGCGCGAUAGCGCGAACGUCCUCAAACUCCAAUGCAUCCCACCACAUGAUGAUGCCUGAAGAGCCUUGGUAUUUUG, the “polymerase ribozyme fitness (log ratio)” value rises from -4.21 to -3.2.

Compared with GACCAAUCUGCCCUCAGAGCUCGAGAACAUCUUCGGAUGCAGAAGAGGCAGGCUUCGGUGGCGCGAUAGCGCCAACGUCCUCAACCUCCAAUGCAUCCCACCGCAUGAUGAUGCCUGAAGAGCCUUGGUUUUUUG, GACCAAUCUGCCCUCAGAGCUCGAGAACAUCUUCGGAUGCAGAAGAGGCAGGCUUCGGUGGCGCGAUAGCGCCAACGUCCUCAACCUCCAAUGCAUCCCACCUCAUGAUGAUGCCUGAAGAGCCUUGGUUUUUUG is higher in “polymerase ribozyme fitness (log ratio)” value: -6.14 for the first, -5.44 for the second.

Compared with GACCAAUCUGCCCUCAGAGCUCGAGAACAUCUUCGGAUGCAGAAGAGGCAGGCUUCGGUGGCGCGAUAGCGCCAACGUCCUCAACCUCCAAUGCAUCCAACCACAUGAUGAUGACUGAAGAGCCUUGGUUUUUUG, GACCAAUCUGCCCUCAGAGCUCGAGAACAUCUUCGGAUGCAGAAGAGGCAGGCUUCGGUGGCGCGAUAGCGACAACGUCCUCAACCUCCAAUGCAUCUCACCACAUGAUAAUGCCUGAAGAGCCUUGGUUUUUUG is higher in “polymerase ribozyme fitness (log ratio)” value: -5.96 for the first, -4.64 for the second.

Compared with GACCAAUCUGCCCUCAGAGCUCGAGAACAUCUUCGGAUGCAGAAGAGGCAGGCUUCGGUGGCGCGAUAGCGCCAACGUCCUCAACCUCCAAUGCAUCCCACCACAUGAUGUUGCCUGAAGAGCCUUGGUUUUUUG, GACCAAUCUGCCCUCAGAGCUCGAGAACAUCUUCGGAUGCAGAAGAGGCAGGCUUUGGUGGCGCGAUAGCGCCAACGUCCUCAACCUCCAAUGCAUCCCACCACAUGAUGAUGCCUGAAGAGUCUUGGUUUUUUU is higher in “polymerase ribozyme fitness (log ratio)” value: -4.79 for the first, -0.56 for the second.

Going from GACCAAUCUGCCCUCAGAGCUCGAGAACAUCUUCGGAUGCAGAAGAGGCAGGCUUCGGUGGCGCGAUAGCGCCAACGUCCUCAACGUCCAAUGCAACCCACCACAUGAUGAUGCCUGAAGAGCCUUGGUUUUUUG to GACCAAUCUGCCCUCAGAGCUCGAGAACAUCUUCGGAUGCAGAAGAGGCAGGCUUCGGUGGCGCGAUAGCGCCAACGUCCUCAACCUCCAAUGCAUCCCACCACAUGAUGUUGCCUGAAGAGCCUUGGUUUAUUG, the “polymerase ribozyme fitness (log ratio)” value rises from -3.83 to -3.18.

Compared with GACCAAUCUGCCCUCAGAGCUCGAGAACAUCUUCGGAUGCAGAAGAGGUAGGCGUCGGAGACGCGAUAGCGCCAACGUCCUCAACCUCCAAUGCAUCCCACCACAUGAUGAUGCCUGAGGAGCCUUGGUUUUUUG, GACCAAUCUGCCCUCAGAGCUCGAGAACAUCUUCGGAUGCAGAAGAGGCAGGCUUCGGUGGCGCGAUAGCGCAAACGUCCUCAACCGCCAAUGCAUCCCACCACAUGAUGAUGCCUGAAGAGCCUUGGUUUUUUG is higher in “polymerase ribozyme fitness (log ratio)” value: -7.24 for the first, -0.428 for the second.

Compared with GACCAAUCUGCCCUCAGAGCUCGAGAACAUCUUCGGAUGCAGAAGAGGCAGGCUUCGGUGGCGCGAUAGCGGCAACGUCCUCAACCUCCAAUGCAGCCCACCACAUGAUGAUGCCUGAAGAGCCUUGGUUUUUUG, GACCAAUCUGCCCUCAGAGCUCGAGAACAUCUUCGGAUGCAGAAGAGGCAGGCUUCGGUGGAGCGAUAGCGCCAACGUCCUCAACCUUUAAUGCAUCCCACCACAUGAUGAUGCCUGAAGAGCCUUGCGUUUUUG is lower in “polymerase ribozyme fitness (log ratio)” value: -2.52 for the first, -2.95 for the second.

Going from GACCAAUCUGCCCUCAGAGCUCGAGAACAUCUUCGGAUGCAGAAGAGGCAGGCUUCGGUGGCGCGAUAGUGCCAACGUCCUCGACCUCCAAUGCACCCCACCACAUGAUUAUGCCUGAAGAGCCUUGGUUUUUUG to GACCAAUCUGCCCUCAGAGCUCGAGAACAUCUUCGGAUGCAGAAGAGGCAGGCUUCGGUGGCGCGAUAGCGCCAACGUCCUCAACCUCCAAUGCAUCCUACCACAUGAUGAUGCCUGAAGAGCCUUGGUUUUUUG, the “polymerase ribozyme fitness (log ratio)” value rises from -6.41 to -4.58.

GACCAAUCUGCCCUCAGAGCUCGAGAACAUCUUCGGAUGCAGAAGAGGCAGGCUUCGGUGGCGCGAUAGCGCCAACGUCAUCAACCUCCAAUGCAUCCCACCACAUGAUGAUGCCUGAAGAGCAUUGGUUUUUUG and GACCAAUCUGCCCUCAGAGCUCGAGAACAUCUUCGGAUGCAGAAGAGGCAGGCUUCGGUGGCGCGAUAGCGCCAACGUCCUCAACCUCUAAUGCAUCCCACCACAUGAUGAUGGCUGAAGAGCCUUUGUUUAUUG are within 0.2 log units of each other in “polymerase ribozyme fitness (log ratio)” value: -3.54 for the first, -3.64 for the second.

Compared with GACCAAUCUGCCCUCAGAGCUCGAGAACAUCUUCGGAUGCAGAAGAGGCAGGCUUCGGUGGCGCGAUAGCGCCAACGUCCUCAACCUCCAAUGCCUCCCACCACAUGAUGAUGCCUGAAGAGCCUUGGUUUUUUG, GACCAAUCUGCCCUCAGAGCUCGAGAACAUCUUCGGAUGCAGAAGAGGCAGGUUUCGGUGGCGCGAUAGCGCCAACGUCCUCAACCUCCAAUGCAUCCCACCACAUGAUGAUGCCUGAAGAGCCGUGGUUUUUUG is lower in “polymerase ribozyme fitness (log ratio)” value: -1.35 for the first, -2.16 for the second.

First: GACCAAUCUGCCCUCAGAGCUCGAGAACAUCUUCGGAUGCAGAAGAGGCAGGAUUCGGUGGCGCGAUAGCGCCAACGUCCUCAACCUCCAAUGCAUCCCACCACAUGAUGAUGCCUGAAGAGCCUUGGUUUUUUG
Second: GACCAAUCUGCCCUCAGAGCUCGAGAACAUCUUCGGAUGCAGAAGAGGCAGGCUUCGGUGGCGCGAUAGCGCCAACGUCCUCAACCUCCAAUGCAUCCCAGCACAUGAUGAUGCCUGAAGAGCCUUGGUUUUCUG
The “polymerase ribozyme fitness (log ratio)” value of the first is higher: 0.047 for the first, -2.92 for the second.
